B1: minF1; a variant is named by its letters at N, in order (parent)
chain: GAGACCGCAACTGAAAAGTTGTTNNNNAANNNNGGNTNNATTTCTGCACGTAGAAGCAAAAGGC

Variants of B1 are the subject of this data set. The data set is described as follows: fraction ligated after 30 min (ligated reads / total reads); higher = more ligase activity. Conditions: with F1*subA RNA substrate (template-directed ligation), 42 °C. The procedure: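 Chip-synthesised pool of minF1 ligase ribozyme variants (single and double substitutions, single to quadruple deletions, bulge and P2 designed variants) was transcribed with T7 and reacted as a pool with excess substrate F1*subA for 30 min at 42 C in 50 mM EPPS pH 8.5, 25 mM MgCl2. Ligated and unligated RNAs were separated by PAGE, barcoded by RT and deep sequenced; fraction ligated = ligated reads / total reads, relative activity = FL / FL of wild-type minF1 (0.76); sequencing FL correlated with PAGE (R2 = 0.98). Sequences are the DNA template of the ribozyme.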
Take CAGATATGTGA T23A: the fraction ligated turned out to be 0.00265.
The same measure for TAGAGGATTGA T23A A29T: 0.00233; for CAAAGGTGTGA A29T: 0.00133; for TCAATGGAGTA G34T: 0.0216.
The same measure for TAGATGGTTGA T23A: 0.00325; for TAGAGGAGTGA T23A: 0.0026.
The same measure for ACAATGGAGTT G34T T37G A40G: 0.00101; for TCAATGAGTGA: 0.0012.
Take TAGAGATGTGA A29G: the fraction ligated is 0.00391.
Turning to TAGAGATGTGA A29T, the fraction ligated came to 0.00374.
In the case of CAGATGATTGA it was 0.0023.
For the variant TAAAGATGTGA T23A A28T A29G, the fraction ligated worked out at 0.00461.
For the variant GAAAGATGTGA T23A A28T A29G, the fraction ligated is 0.00194.
Consider TAGAGGAGTGA, for which the fraction ligated came out at 0.00669.
With TAGAGGTGTGA A29T, the fraction ligated amounted to 0.00319.
As for CAGATGATGTG, the fraction ligated worked out at 0.00641.
In the case of CAGATGATGTA, the fraction ligated worked out at 0.00303.
With TAAAGGTGTGA A29T, the fraction ligated was 0.0019.
In the case of TAGATGTGTGA it was 0.00395.
With CAGAGATGTGA A29T, the fraction ligated amounted to 0.00205.
In the case of CAGAGATGTGA A29G it was 0.00315.
For AAAAGGTGTGA A29T, the fraction ligated amounted to 0.00306.
AAGAGGATGTA A29T: the fraction ligated came out at 0.00173.
The same measure for CAGATGATGTG T23A: 0.00584; for TCAATGATTGA: 0.00117; for TAGAGATGTGA T23A A28T A29G: 0.00684.
The same measure for TAAAGGAGTGA A29T: 0.00185; for AAGATGGAGTA G34T: 0.00267.
For the variant ACAATGGTGTG, the fraction ligated worked out at 0.00545.
The same measure for ACAATGGTGTA: 0.00264.
With CAGATGGAGTT T23A G34T T37G, the fraction ligated was 0.00071.
Consider TAGAGGTGTGA, for which the fraction ligated is 0.00375.
Take CAGATGGAGTT G34T T37G: the fraction ligated was 0.0026.
In the case of CAAAGATGTGA A29T it was 0.00371.
Turning to CAAAGATGTGA A29G, the fraction ligated is 0.00439.
On to CAAAGATGTGA A28T A29G, for which the fraction ligated turned out to be 0.00352.
In the case of CAGATGGAGTA T23A it was 0.00106; in that of CAGAGATGTGA T23A A29T, 0.00283.
For CAGAGATGTGA T23A A29G, the fraction ligated was 0.00348.
Turning to CAGATGATGTA T23A, the fraction ligated worked out at 0.00233.
The same measure for AAAAGGATTGA A29T: 0.00197.
CAGATGGGTGA: the fraction ligated was found to be 0.00455.
On to TCAATGATGTG, for which the fraction ligated is 0.0049.
The same measure for TCAATGATGTA: 0.00254.
In the case of TCAAGATGTGA it was 0.00179; in that of CAGAGGATGTG A29T, 0.0108.
The same measure for CAGAGGTGTGA T23A A29T: 0.00102.
Take CAGAGGTGTGA T23A: the fraction ligated is 0.00265.
In the case of AAGAGATGTGA A29T it was 0.00363; in that of AAGAGATGTGA A29G, 0.00367.
As to ACAATGGATGA, the fraction ligated came out at 0.00232.
In the case of CAGAGGATTGA it was 0.00276; in that of TAGATGTGTGA T23A, 0.00136.
As to TCAATGGATGA, the fraction ligated was determined as 0.00193.
In the case of AAGATGATTGA it was 0.0028; in that of ACAAGGTGTGA A29T, 0.00256; in that of AAGATGGGTGA, 0.00372.
The same measure for TAGAGGATGTG: 0.00216; for TAGAGGATGTA: 0.000988.
In the case of TCAAGGATTGA A29T it was 0.00468; in that of TCAATGGTGTG, 0.00437.
Consider TCAATGGTGTA, for which the fraction ligated was 0.00227.
Take CAGAGGATTGA T23A: the fraction ligated is 0.00223.
In the case of TCAATGGAGTG T23A it was 0.0035; in that of TAAAGGAGTGA T23A A29T, 0.00645; in that of TAGATGGATGA T23A, 0.00368.
Take CAAAGGATGTG T23A A29T: the fraction ligated worked out at 0.00761.
For the variant CAGATGGATGA T23A, the fraction ligated was found to be 0.00203.
In the case of TAGATGATGTG T23A it was 0.00386; in that of ACAATATGTGA, 0.00334.
In the case of TAGAGGATGTA T23A it was 0.00339; in that of TCAAGGATGTG A29T, 0.00632.
In the case of TCAAGGAGTGA A29T it was 0.00143.
As to CAGATGGAGTA T23A G34T, the fraction ligated was 0.00843.
The same measure for AAGATGGTGTG: 0.00357.
Consider AAGATGGTGTA, for which the fraction ligated turned out to be 0.00401.
In the case of TCAATGAGTGA T23A, the fraction ligated is 0.00315.
In the case of TCAAGGATGTA T23A A29T it was 0.00242; in that of TCAAGGTGTGA T23A, 0.00305; in that of CAGATGGTTGA T23A, 0.00385.
In the case of TAGATGGAGTT G34T T37G it was 0.00107; in that of AAGATGGAGTT G34T T37G A40G, 0.0006; in that of AAAAGGATGTA A29T, 0.00276.
As to ACAATGATGTA, the fraction ligated is 0.00197.

These data come from the supplement of paper PMC6755084.
